# Reference: the Human Domainome abundance scans (Beltran et al. 2025)
# ± gives the uncertainty stated by the source.
# B1: Homeobox protein cut-like 1, residues 548 to 629; numbered along this chain, P39880 (parent)
# chain: GEEMDTAEIARQVKEQLIKHNIGQRIFGHYVLGLSQGSVSEILARPKPWNKLTVRGKEPFHKMKQFLSDEQNILALRSIQGR
# Variants of: B1
# Assay: abundance fitness (aPCA) (normalised: wild type 0, dead -1); higher = more abundant; growth selection in yeast, the domain comes from the species named
# Conditions: Homo sapiens
row,Variant,abundance fitness
1,GEEMDTAEIARQVKEQLIKHNIGQRIFGHYVLGLSQGSVSEILARPKPWNKLTVRGKEPFHKMKQFLSDEMNILALRSIQGR [Q71M],-0.137 ± 0.041
2,GEEMDTAEIARQVKEQLIKHNIGQRIFGHYVLGLSQRSVSEILARPKPWNKLTVRGKEPFHKMKQFLSDEQNILALRSIQGR [G37R],0.029 ± 0.023
3,GEEMDTAEIARQVKEQLIKHNIGQRIFGHYVLGLSQVSVSEILARPKPWNKLTVRGKEPFHKMKQFLSDEQNILALRSIQGR [G37V],-0.051 ± 0.029
4,GEEMDTAEIKRQVKEQLIKHNIGQRIFGHYVLGLSQGSVSEILARPKPWNKLTVRGKEPFHKMKQFLSDEQNILALRSIQGR [A10K],-0.746 ± 0.067
5,GEEMDTAEIARQVKEQLIKHNIGQRIFGHYVLGLSQGSVSEILARPKPWNKLTVRGKEPFHKMKQFLSDEQNILALRSRQGR [I79R],-0.065 ± 0.027
6,GEEMDTAEIARQVKTQLIKHNIGQRIFGHYVLGLSQGSVSEILARPKPWNKLTVRGKEPFHKMKQFLSDEQNILALRSIQGR [E15T],-0.143 ± 0.12
7,GEEMDTAEIARQVKRQLIKHNIGQRIFGHYVLGLSQGSVSEILARPKPWNKLTVRGKEPFHKMKQFLSDEQNILALRSIQGR [E15R],-0.207 ± 0.12
8,GEEMDTAEIARQVKEQLIKHNIGQRIFGHYVLGLSQGSVSEILARPKPWNKLTVRYKEPFHKMKQFLSDEQNILALRSIQGR [G56Y],-0.313 ± 0.078
9,GEEMDTAEIARQVKEQLIGHNIGQRIFGHYVLGLSQGSVSEILARPKPWNKLTVRGKEPFHKMKQFLSDEQNILALRSIQGR [K19G],-0.513 ± 0.024
10,GEEMDTAEIARQVKEQLIPHNIGQRIFGHYVLGLSQGSVSEILARPKPWNKLTVRGKEPFHKMKQFLSDEQNILALRSIQGR [K19P],-0.763 ± 0.087
11,GEEMDTAEIARQVKEQLIKHNIGQRIFGHYVLGLSQGSVSEILARRKPWNKLTVRGKEPFHKMKQFLSDEQNILALRSIQGR [P46R],-0.925 ± 0.046
12,GEEMDTAEIARQVDEQLIKHNIGQRIFGHYVLGLSQGSVSEILARPKPWNKLTVRGKEPFHKMKQFLSDEQNILALRSIQGR [K14D],-0.343 ± 0.21
13,GEEMDTAEIARQVKEQLAKHNIGQRIFGHYVLGLSQGSVSEILARPKPWNKLTVRGKEPFHKMKQFLSDEQNILALRSIQGR [I18A],0.007 ± 0.026
14,GEEMDTAEIARQVKEQLFKHNIGQRIFGHYVLGLSQGSVSEILARPKPWNKLTVRGKEPFHKMKQFLSDEQNILALRSIQGR [I18F],0.085 ± 0.065
15,GEEMDTAEIARQVKEQLIKHNIGQRIFGHYVLGLSQGSVSEILARPKPWNKLTVRGKEPFHKMKQFLSDEQNILTLRSIQGR [A75T],0.012 ± 0.037
16,GEEMDTAEIARQVKEQLIKHNIGQRIFGHYVLGLSQGSVSEILARPKPWNKLTVRGKEPFHKMKQFLSDEQNILPLRSIQGR [A75P],-0.314 ± 0.047
17,GEEMDTAEIARQVKEQLIKHNIGQRIFGHYVLGLSQGSVSEILARPKPWNKLTVRGKEPFHKMKQFLSDEQLILALRSIQGR [N72L],-0.251 ± 0.034

row,Variant,abundance fitness
1,GEEMDTAEIARQVKEQLIKHNIGQRIFGHYVLGLSQGSVSEILARPKPWNKLTVRGKEPFHKMKQFLSDEQGILALRSIQGR [N72G],-0.04 ± 0.025
2,GEEMDTAEIARQVKEQLIKHNIGQRIFGHYVLGLSQGSVSEILARPKPWNKITVRGKEPFHKMKQFLSDEQNILALRSIQGR [L52I],-0.538 ± 0.13
3,GEEMDTAEIARQVKEQLIKHNIGQRIFGHYVLGLSQGSVSEILARPKPWNKPTVRGKEPFHKMKQFLSDEQNILALRSIQGR [L52P],-0.97 ± 0.14
4,GEEMDTAEIARQVKEQLIKHNIGQRIMGHYVLGLSQGSVSEILARPKPWNKLTVRGKEPFHKMKQFLSDEQNILALRSIQGR [F27M],-0.857 ± 0.08
5,GEEMDTAEIARQVKEQLIKHNIGQRINGHYVLGLSQGSVSEILARPKPWNKLTVRGKEPFHKMKQFLSDEQNILALRSIQGR [F27N],-0.787 ± 0.13
6,GEEMDTAEIARQVKEQLIKHNIGQRITGHYVLGLSQGSVSEILARPKPWNKLTVRGKEPFHKMKQFLSDEQNILALRSIQGR [F27T],-0.914 ± 0.071
7,GEEMDTAEIARQVKEQLIKHNIGQQIFGHYVLGLSQGSVSEILARPKPWNKLTVRGKEPFHKMKQFLSDEQNILALRSIQGR [R25Q],0.019 ± 0.037
8,GEEMDTAEIARQVKEQLIKHNIGQRIFGHYVLGLSQGSVSEILARPKPWNKLTVRGKEPRHKMKQFLSDEQNILALRSIQGR [F60R],-1.01 ± 0.051
9,GEEMDTAEIARQVKEQLIKHNIGQRIFGHYVLGLSQGSVSEILARPKPWNKLTVRGKEPTHKMKQFLSDEQNILALRSIQGR [F60T],-0.835 ± 0.074
10,GEEMDTAEIARQVKEQLIKHNIGQRIFGHYVMGLSQGSVSEILARPKPWNKLTVRGKEPFHKMKQFLSDEQNILALRSIQGR [L32M],-0.317 ± 0.046
11,GEEMDTAEIARQVKEQLIKHNIGQRIFGHYVLGLSQGSVSEILARPKPENKLTVRGKEPFHKMKQFLSDEQNILALRSIQGR [W49E],-0.273 ± 0.26
12,GEEMDTAEIARQVKEQLIKHNIGQRIFGHYVLGLSQGSVSEILARPKPSNKLTVRGKEPFHKMKQFLSDEQNILALRSIQGR [W49S],-0.477 ± 0.22
13,GEEMDTAEIARQVKEQLIKHNIGQRIFGHYVLGLSQGSVSEIMARPKPWNKLTVRGKEPFHKMKQFLSDEQNILALRSIQGR [L43M],-0.235 ± 0.038
14,GEEMDTAGIARQVKEQLIKHNIGQRIFGHYVLGLSQGSVSEILARPKPWNKLTVRGKEPFHKMKQFLSDEQNILALRSIQGR [E8G],-0.233 ± 0.023
15,GEEMDTAEIARQVKEQLIKHNIGQRIFGHYVLGLSQGSVSELLARPKPWNKLTVRGKEPFHKMKQFLSDEQNILALRSIQGR [I42L],-0.013 ± 0.031
16,GEEMDTAEIARQVKEQLIKHNIGWRIFGHYVLGLSQGSVSEILARPKPWNKLTVRGKEPFHKMKQFLSDEQNILALRSIQGR [Q24W],0.025 ± 0.03
